Reference: the supplement of paper PMC7125110
± gives the standard error. This sample holds only a part of the variants without activity.

B1: glmS ribozyme (parent)
chain: AUAAAAGCGCCAGAACUACAGAAAUGUAGUUGACGAGGAGGAGGUUUAUCGAAUUUUCGGCGGAUGCCUCCAAA

Columns and labels:
Settings in all cases: with glucosamine-6-phosphate
glucosamine-6-phosphate [1] = variants of: B1; assay: self-cleavage kobs at 40 uM GlcN6P; higher = faster cleavage; RNA array
In short: (§1)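 Using a hybridised Cy3 probe at 37 °C, barcoded ribozyme variants transcribed in situ by E. coli RNA polymerase on sequenced MiSeq chips were monitored across tiles imaged over ~14 h. The flow contained glucosamine-6-phosphate from 40 μM to 10 mM in HEPES/KCl/Mg(OAc)2 buffer. Signals were normalised to baseline and to non-cleaving reference variants before per-tile medians were fit to one- or two-exponential decays to yield kobs. Weighted Michaelis–Menten fits across concentrations gave kcat and KM.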

glucosamine-6-phosphate [2] = variants of: B1; assay: self-cleavage kobs at 10000 uM GlcN6P; higher = faster cleavage; RNA array
In short: as §1

glucosamine-6-phosphate [3] = variants of: B1; assay: self-cleavage kobs at 2500 uM GlcN6P; higher = faster cleavage; RNA array
In short: as §1

glucosamine-6-phosphate [4] = variants of: B1; assay: self-cleavage kobs at 160 uM GlcN6P; higher = faster cleavage; RNA array
In short: as §1

glucosamine-6-phosphate [5] = variants of: B1; assay: self-cleavage kobs at 640 uM GlcN6P; higher = faster cleavage; RNA array
In short: as §1

AUAAAAGCGCCUGGACUACAGAAAUGUAAUUGACGAGGAGGAGGUUUAUCGAAUUUUCGGCGGAUGCCUCCAAA [A12U A14G G29A]
self-cleavage kobs at 40 uM GlcN6P (glucosamine-6-phosphate [1]): 0.00101 ± 0.00019 s⁻¹
self-cleavage kobs at 10000 uM GlcN6P (glucosamine-6-phosphate [2]): 0.00831 ± 0.0018 s⁻¹

AUAAAAGCAAUAGAACUACAGAAAUGUAGUUGACGAGGAGGAGGUUUAUCGAAUUGUCGGCGGAUGCCUCUAAA [G9A C10A C11U U56G C71U]
self-cleavage kobs at 40 uM GlcN6P (glucosamine-6-phosphate [1]): < 1e-05 s⁻¹
self-cleavage kobs at 2500 uM GlcN6P (glucosamine-6-phosphate [3]): < 1e-05 s⁻¹
self-cleavage kobs at 10000 uM GlcN6P (glucosamine-6-phosphate [2]): < 1e-05 s⁻¹

AUAAAAGCGCCAGAACUACAGAAAUGUAGUUGACCAGCAGGAGGUUUAUCGAAUUUUAGGCGGAUGCCUCCAAA [G35C G38C C58A]
self-cleavage kobs at 40 uM GlcN6P (glucosamine-6-phosphate [1]): < 1e-05 s⁻¹
self-cleavage kobs at 160 uM GlcN6P (glucosamine-6-phosphate [4]): < 1e-05 s⁻¹
self-cleavage kobs at 2500 uM GlcN6P (glucosamine-6-phosphate [3]): < 1e-05 s⁻¹

AUAAAAGCGUCAGAACUACAGAAAUGUAGUUGACGAGGAGGAGGUUUAUCGAAUUUUAGGCGGAUGCAUCCAAA [C10U C58A C68A]
self-cleavage kobs at 40 uM GlcN6P (glucosamine-6-phosphate [1]): < 1e-05 s⁻¹
self-cleavage kobs at 10000 uM GlcN6P (glucosamine-6-phosphate [2]): < 1e-05 s⁻¹

AUAAAAGCGCCAGUCCUACAGAAAUGUAGUUGCCGAGGAGGAGGUUUAUCGAAUUUUCGGCGGAUGCCUGCAAA [A14U A15C A33C C70G]
self-cleavage kobs at 40 uM GlcN6P (glucosamine-6-phosphate [1]): < 1e-05 s⁻¹

AUAAAAGCGCCAGAACUACAGAAAUGUAUGUGAUGAGGAGGAGGUUUAUCGAAUUUUCGGCGGAUGCCUCCAAA [G29U U30G C34U]
self-cleavage kobs at 40 uM GlcN6P (glucosamine-6-phosphate [1]): < 1e-05 s⁻¹
self-cleavage kobs at 10000 uM GlcN6P (glucosamine-6-phosphate [2]): < 1e-05 s⁻¹

AUAAAAGCGCAAGGACUACAGAAAUGUAGUUGACGAGGAGGAGGUUUAUCGCAUUUUCGGCGAAUGCCUCCAAA [C11A A14G A52C G63A]
self-cleavage kobs at 40 uM GlcN6P (glucosamine-6-phosphate [1]): < 1e-05 s⁻¹

AUAAAAUCGCCAGAACUACAGAAAUGUAGUUGACGAGGAGGAGCUUUAUCGAAUUUUCGGCGGAUGCCUCCAAA [G7U G44C]
self-cleavage kobs at 40 uM GlcN6P (glucosamine-6-phosphate [1]): < 1e-05 s⁻¹
self-cleavage kobs at 160 uM GlcN6P (glucosamine-6-phosphate [4]): < 1e-05 s⁻¹
self-cleavage kobs at 640 uM GlcN6P (glucosamine-6-phosphate [5]): < 1e-05 s⁻¹
self-cleavage kobs at 2500 uM GlcN6P (glucosamine-6-phosphate [3]): < 1e-05 s⁻¹
self-cleavage kobs at 10000 uM GlcN6P (glucosamine-6-phosphate [2]): < 1e-05 s⁻¹

AUAAAACCGCCAGAACUACAGAAAUGUAGUUGACGAGGAGGAGGUUUAUCUAAUUUUCGGCGGAUGCCUCCAAA [G7C G51U]
self-cleavage kobs at 40 uM GlcN6P (glucosamine-6-phosphate [1]): < 1e-05 s⁻¹
self-cleavage kobs at 160 uM GlcN6P (glucosamine-6-phosphate [4]): < 1e-05 s⁻¹
self-cleavage kobs at 640 uM GlcN6P (glucosamine-6-phosphate [5]): < 1e-05 s⁻¹
self-cleavage kobs at 2500 uM GlcN6P (glucosamine-6-phosphate [3]): < 1e-05 s⁻¹
self-cleavage kobs at 10000 uM GlcN6P (glucosamine-6-phosphate [2]): < 1e-05 s⁻¹

AUAAAAGCGCCAGAACUACAGAAAUGUAGUUGACGAGGAGGAGGUUUACCGAAUUUUCUGCGGAUGCCUCCAAA [U49C G59U]
self-cleavage kobs at 40 uM GlcN6P (glucosamine-6-phosphate [1]): < 1e-05 s⁻¹
self-cleavage kobs at 160 uM GlcN6P (glucosamine-6-phosphate [4]): < 1e-05 s⁻¹
self-cleavage kobs at 640 uM GlcN6P (glucosamine-6-phosphate [5]): < 1e-05 s⁻¹
self-cleavage kobs at 10000 uM GlcN6P (glucosamine-6-phosphate [2]): < 1e-05 s⁻¹

AUAAAAGCGCCAGACCUACAGAAAUGUAGGUGACGAGGUGGAGGUUUAUCGAAUUUUCGGCGGAUGCCUCCAAA [A15C U30G A39U]
self-cleavage kobs at 40 uM GlcN6P (glucosamine-6-phosphate [1]): 0.00162 ± 0.00029 s⁻¹
self-cleavage kobs at 10000 uM GlcN6P (glucosamine-6-phosphate [2]): 0.0346 ± 0.013 s⁻¹

AUAAAAGCGUCAGAACUACAGAAAUGUAGUUGACGAGGAAGAGGUUUCUCGAAUUUUCGGCGGAUGCCUCCAAA [C10U G40A A48C]
self-cleavage kobs at 40 uM GlcN6P (glucosamine-6-phosphate [1]): < 1e-05 s⁻¹

AUAAAAGCGCAAGAACUACAGAAAUGUAGUUGACGCGGAGGAGGUUUAUCGAAUUUUCGGCGGAUGCCUCCAAA [C11A A36C]
self-cleavage kobs at 40 uM GlcN6P (glucosamine-6-phosphate [1]): < 1e-05 s⁻¹
self-cleavage kobs at 160 uM GlcN6P (glucosamine-6-phosphate [4]): < 1e-05 s⁻¹
self-cleavage kobs at 640 uM GlcN6P (glucosamine-6-phosphate [5]): < 1e-05 s⁻¹
self-cleavage kobs at 2500 uM GlcN6P (glucosamine-6-phosphate [3]): < 1e-05 s⁻¹
self-cleavage kobs at 10000 uM GlcN6P (glucosamine-6-phosphate [2]): < 1e-05 s⁻¹

AUAAAAGCGCCAGAACUACAGAAAUGUAGUUGAAGAGGAGUAGGUUUAUCGAAUUUUCGGCAGAUGCCUCCAAA [C34A G41U G62A]
self-cleavage kobs at 40 uM GlcN6P (glucosamine-6-phosphate [1]): < 1e-05 s⁻¹
self-cleavage kobs at 10000 uM GlcN6P (glucosamine-6-phosphate [2]): < 1e-05 s⁻¹
